In article PMC3229578, “Brachyury and Related Tbx Proteins Interact with the Mixl1 Homeodomain Protein and Negatively Regulate Mixl1 Transcriptional Activity” (PLoS ONE, 2011):

How the values were obtained:
Test in all cases: pull-down; bacterially made, purified His-Brachyury derivatives incubated with GST-Mixl1 derivatives or GST alone on glutathione beads in ELB150 buffer, 4°C, 3 h; washed in ELB300 (0.3 M KCl); Western blot with anti-T N19
Details in all cases: both partners purified
His-hBrachyury = biological target: T1, His-hBrachyury (human, UniProt O15178 1-435)
T1 construct: Brachyury (T), human; in pET15b by Gateway cloning; also called hT; pET15b-hBrachyury; source: E. coli BL21 RIPL(DE3), purified (Talon resin)
T1 sequence (looked up): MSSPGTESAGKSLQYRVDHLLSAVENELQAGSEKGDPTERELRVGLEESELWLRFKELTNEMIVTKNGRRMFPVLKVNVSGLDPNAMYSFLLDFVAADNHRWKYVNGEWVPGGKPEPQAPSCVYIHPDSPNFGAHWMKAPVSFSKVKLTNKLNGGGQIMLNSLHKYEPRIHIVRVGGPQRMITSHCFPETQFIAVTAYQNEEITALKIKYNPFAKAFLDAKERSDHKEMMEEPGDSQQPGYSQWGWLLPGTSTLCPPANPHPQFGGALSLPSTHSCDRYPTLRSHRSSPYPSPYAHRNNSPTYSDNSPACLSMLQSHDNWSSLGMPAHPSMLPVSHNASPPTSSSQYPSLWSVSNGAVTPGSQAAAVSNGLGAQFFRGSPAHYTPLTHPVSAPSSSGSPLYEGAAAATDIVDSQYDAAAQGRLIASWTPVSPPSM

His mT-box = biological target: T2, His mT-box (mouse, UniProt P20293 1-230)
T2 construct: Brachyury (T), mouse, T-box domain aa 1-230; also called His-Brachyury T-box domain; T-box domain (aa 1–230) of Brachyury; source: E. coli BL21 RIPL(DE3), purified (Talon resin)
T2 sequence (looked up): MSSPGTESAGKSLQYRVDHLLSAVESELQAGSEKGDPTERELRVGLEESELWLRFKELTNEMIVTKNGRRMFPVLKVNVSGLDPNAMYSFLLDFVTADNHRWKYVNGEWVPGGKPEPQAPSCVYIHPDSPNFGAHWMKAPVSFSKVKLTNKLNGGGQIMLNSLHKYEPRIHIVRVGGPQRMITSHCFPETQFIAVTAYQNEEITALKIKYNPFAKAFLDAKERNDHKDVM

His-mBrachyury = biological target: T3, His-mBrachyury (mouse, UniProt P20293 1-436)
T3 construct: Brachyury (T), mouse; in pET15b by Gateway cloning; also called mT; recombinant His-tagged T protein; source: E. coli BL21 RIPL(DE3), purified (Talon resin)
T3 sequence (looked up): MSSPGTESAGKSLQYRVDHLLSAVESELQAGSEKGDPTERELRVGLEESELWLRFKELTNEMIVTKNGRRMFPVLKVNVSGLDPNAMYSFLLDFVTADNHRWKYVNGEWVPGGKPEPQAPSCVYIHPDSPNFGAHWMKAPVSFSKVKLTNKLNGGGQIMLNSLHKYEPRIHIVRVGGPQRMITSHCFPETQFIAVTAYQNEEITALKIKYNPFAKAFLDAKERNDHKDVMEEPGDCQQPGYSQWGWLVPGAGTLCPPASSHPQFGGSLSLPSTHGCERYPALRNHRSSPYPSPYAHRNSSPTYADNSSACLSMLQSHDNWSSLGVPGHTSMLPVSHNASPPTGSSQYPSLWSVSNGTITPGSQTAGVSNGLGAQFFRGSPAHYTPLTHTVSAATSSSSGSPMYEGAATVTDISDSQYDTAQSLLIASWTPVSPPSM

B1: GST-hMixl1 (natural protein)
chain: not shown
notes: MIXL1, the human ortholog of Mixl1; in pGEX2T by Gateway cloning; also called pGEX-hMixl1; source: E. coli BL21 RIPL(DE3), purified (glutathione agarose)
His-hBrachyury
  binding result: binds

B2: GST mMixl1 HD (domain or fragment)
chain: not shown
notes: Made as one of the 'GST-Mixl1 derivatives' of the methods; source: E. coli BL21 RIPL(DE3), purified (glutathione agarose)
His mT-box
  binding result: binds

B3: GST-mMixl1 (bacterial) (natural protein)
chain: not shown
notes: Mixl1 homeodomain protein, mouse; in pGEX2T by Gateway cloning; also called recombinant GST mMixl1; pGEX-mMixl1; source: E. coli BL21 RIPL(DE3), purified (glutathione agarose)
His-mBrachyury
  binding result: binds
